The text below walks through data of patent US20250043287, “SYNTHETIC MEMORY WITH INTERCEPTING RECOMBINASE FUNCTION” (Georgia Tech Research Corporation, published 2025).

Data set [1] has as its target I+HQN (UniProt P03023 SEQ:1-360, Y17H,R22N). The experiment in a line: cell_activity; day 1 dynamic range, IPTG; 57.65 day 3. The note with it: chain copies: 4.
Data set [2] has as its target T1, E+HQN (UniProt O87590 SEQ:1-337, Y17H,R22N).
T1 sequence: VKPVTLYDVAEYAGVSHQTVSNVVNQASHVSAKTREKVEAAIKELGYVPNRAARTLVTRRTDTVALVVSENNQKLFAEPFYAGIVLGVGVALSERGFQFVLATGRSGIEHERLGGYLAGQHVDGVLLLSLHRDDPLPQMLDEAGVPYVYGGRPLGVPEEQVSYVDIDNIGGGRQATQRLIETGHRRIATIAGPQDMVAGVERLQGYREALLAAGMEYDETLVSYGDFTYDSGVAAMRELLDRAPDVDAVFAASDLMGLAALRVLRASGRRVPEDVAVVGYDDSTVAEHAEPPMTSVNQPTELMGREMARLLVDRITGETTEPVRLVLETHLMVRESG
The experiment in a line: cell_activity; day 1 dynamic range of interception, cellobiose induced; 114.83 day 3. The following applies: chain copies: 2.

Data set [3] addresses I+KSL (UniProt P03023 SEQ:1-360, Y17K,Q18S,R22L). The experiment in a line: cell_activity; day 1 dynamic range; 7.42 day 3. The note with it: chain copies: 4.
Data set [4] addresses T2, E+KSL (UniProt O87590 SEQ:1-337, Y17K,Q18S,R22L).
T2 sequence: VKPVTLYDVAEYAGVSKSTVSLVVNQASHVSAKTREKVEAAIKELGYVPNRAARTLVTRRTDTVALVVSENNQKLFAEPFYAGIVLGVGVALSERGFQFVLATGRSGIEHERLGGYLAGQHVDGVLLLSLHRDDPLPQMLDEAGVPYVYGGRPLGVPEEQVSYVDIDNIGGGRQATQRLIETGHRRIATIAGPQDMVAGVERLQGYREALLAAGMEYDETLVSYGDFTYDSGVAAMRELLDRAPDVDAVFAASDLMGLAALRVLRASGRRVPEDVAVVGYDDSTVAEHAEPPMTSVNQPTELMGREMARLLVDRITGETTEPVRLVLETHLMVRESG
The experiment in a line: cell_activity; day 1 dynamic range; 71.51 day 3. The following applies: chain copies: 2.

For data set [5], the target named is T3, I+YQR (LacI) (UniProt P03023 SEQ:1-360).
T3 chain: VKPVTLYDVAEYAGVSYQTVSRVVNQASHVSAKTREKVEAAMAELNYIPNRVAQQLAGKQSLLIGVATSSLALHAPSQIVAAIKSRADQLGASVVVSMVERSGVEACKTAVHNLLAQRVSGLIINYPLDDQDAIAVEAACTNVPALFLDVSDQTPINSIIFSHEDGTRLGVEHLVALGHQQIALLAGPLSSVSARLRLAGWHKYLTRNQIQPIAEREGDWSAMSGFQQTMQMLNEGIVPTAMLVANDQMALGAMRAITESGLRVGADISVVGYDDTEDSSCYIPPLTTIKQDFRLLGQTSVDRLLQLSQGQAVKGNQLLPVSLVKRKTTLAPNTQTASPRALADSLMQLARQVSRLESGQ
Description: cell_activity; day 1 dynamic range; 29.77 day 3. The following applies: chain copies: 4.

Data set [6] deals with T4, E+YQR (CelR core, LacI-type DBD) (UniProt O87590 SEQ:1-337).
T4 chain: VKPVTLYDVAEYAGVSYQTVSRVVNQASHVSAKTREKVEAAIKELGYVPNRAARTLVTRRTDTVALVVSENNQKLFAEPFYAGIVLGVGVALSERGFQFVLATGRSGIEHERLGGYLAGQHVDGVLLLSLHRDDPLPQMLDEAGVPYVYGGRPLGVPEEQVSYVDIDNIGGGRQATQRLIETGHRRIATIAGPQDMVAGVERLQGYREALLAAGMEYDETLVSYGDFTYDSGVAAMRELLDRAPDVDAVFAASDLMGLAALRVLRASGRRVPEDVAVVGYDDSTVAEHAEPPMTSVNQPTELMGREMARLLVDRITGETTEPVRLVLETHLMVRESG
The experiment in a line: cell_activity; day 1 dynamic range; 141.52 day 3. The following applies: chain copies: 2.

B1: A118 attP Ottg P+1 (dsDNA)
DNA 1: TTAGTTCCTCGTTTTCTCTCGTTAATTTTGAGCGCTCAAAAAAACTAAA
DNA 2: TTTAGTTTTTTTGAGCGCTCAAAATTAACGAGAGAAAACGAGGAACTAA
For B1, the binding signal came to 15.4 fold in data set [1] and 20.6 fold in data set [2].

B2: A118 attP Oagg P+1 (dsDNA)
DNA 1: TTAGTTCCTCGTTTTCTCTCGTTAATTAGGAGCGCTCCTAAAAACTAAA
DNA 2: TTTAGTTTTTAGGAGCGCTCCTAATTAACGAGAGAAAACGAGGAACTAA
For B2, the values for the binding signal in data set [3] and in data set [4] were 5.44 fold and 14.7 fold, respectively.

B3: A118 attP Ogtg (Osym) P+1 (dsDNA)
DNA 1: TTAGTTCCTCGTTTTCTCTCGTTAATTGTGAGCGCTCACAAAAACTAAA
DNA 2: TTTAGTTTTTGTGAGCGCTCACAATTAACGAGAGAAAACGAGGAACTAA
B3 came in with a dynamic range in data set [5] of 9.26 fold. In addition, the binding signal in data set [6] worked out at 20.9 fold.
